Measured values reported in PMC5350519.

Experiments:
[1] = target: CENP-A^TAP (carboxy-terminally TAP-tagged CENP-A) (human) (UniProt P49450); test: co-IP
[2] = target: CENP-A^LAP (CENP-A tagged at an endogenous allele with a LAP tag) (human (endogenous in HeLa)) (UniProt P49450); test: co-IP

| Substance | fold depletion of histone H3 in the purified complexes against the input [1] [fold] | percent of the total CENP-A in the affinity-purified complexes [1] [%] | stoichiometry N (CENP-A molecules in a complex) [1] | stoichiometry N (CENP-A molecules in a complex) [2] |
| --- | --- | --- | --- | --- |
| histone H3 (from UniProt P68431 1-136) (natural protein) | 6250 | – | – | – |
| untagged endogenous CENP-A (from UniProt P49450 1-140) (natural protein) | – | 9 to 13 | > 2 | 2 |
